The values below come from patent US7268212B2, “Ligand of G protein-coupled receptor protein and DNA thereof” (Takeda Pharmaceutical Company Limited, priority 2001, dated 2007).

A word on the IC50: it is the midpoint of a concentration-inhibition curve.

Non-standard residues stand in square brackets, D forms with d. Residues, ends and D or L forms follow the SMILES beside them. No end group written: not given here. Trp(6-Br) = N[C@@H](Cc1c[nH]c2cc(Br)ccc12)C(=O)O; dTrp(6-Br) = N[C@H](Cc1c[nH]c2cc(Br)ccc12)C(=O)O

To fix the notation:
B1: DTrp(6Br)1-human GPR7L(29) (peptide)
chain: WYKPAAGHSSYSVGRAAGLLSGLRRSPYA
modifications: not fully specified (residue 1); printed as D-Trp(6Br)-Tyr-Lys-Pro-Ala-Ala-Gly-His-Ser-Ser-Tyr-Ser-Val-Gly-Arg-Ala-Ala-Gly-Leu-Leu-Ser-Gly-Leu-Arg-Arg-Ser-Pro-Tyr-Ala

One assay concerns the target T1, bovine GPR7 (Bos taurus, UniProt Q8MJV3).
T1 construct: expressed in transfected cells; host or cells: CHO cells
T1 sequence (Q8MJV3 1-331): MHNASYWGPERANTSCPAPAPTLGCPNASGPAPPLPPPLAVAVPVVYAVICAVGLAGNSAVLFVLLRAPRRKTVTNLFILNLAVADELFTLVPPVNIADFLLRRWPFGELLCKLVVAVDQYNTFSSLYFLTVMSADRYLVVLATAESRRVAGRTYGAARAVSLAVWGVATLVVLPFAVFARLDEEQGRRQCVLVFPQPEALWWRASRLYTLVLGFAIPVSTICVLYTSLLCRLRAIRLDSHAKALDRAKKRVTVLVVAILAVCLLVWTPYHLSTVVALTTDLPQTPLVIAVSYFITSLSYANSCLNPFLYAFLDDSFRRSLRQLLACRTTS
Nature of the assay: Intracellular cAMP production suppression activity on bovine GPR7-expressed CHO cells. Conditions: forskolin-promoted cAMP production; receptor-expressed CHO cells; read-out: IC50 (nM) bovine GPR7, cAMP production inhibition. It counts as cell-based. How it is done:
(§1) The intracellular cAMP production suppression activity of peptides associated with various GPR7 ligands on CHO cells, in which human GPR7, bovine GPR8, human GPR8, human GPR8, bovine GPR8 and rat GPR7 were expressed, was examined. […] An assay buffer was prepared by adding 20 mM HEPES, pH7.4, 0.1% bovine serum albumin and 0.2 mM 3-isobutyl-1-methylxanthine (Sigma) to Hanks' Balanced Salt Solution (Gibco BRL). The plate incubated overnight was first washed twice with 150 μl of the assay buffer, and then exchanged with 150 μl of the assay buffer, followed by incubation for 30 minutes at 37° C. in 100% air. By adding 4 μM forskolin to the assay buffer, a buffer for sample dilution was prepared and the stock solution (10^−2 M of 10^−3 M) was diluted with the buffer thus obtained to prepare sample solutions in final concentrations of 10^−6 M, 10^−7 M, 10^−8 M, 10^−9 M and 10^−10 M. The plate incubated with the assay buffer for 30 minutes was taken out. After washing twice with the assay buffer, 50 μl of the assay buffer and then 50 μl of the sample solution were added thereto. Each sample was assayed in triplet. […] A difference between the maximum cAMP level and the cAMP level when each sample was added was calculated and the percentage of cAMP production level promoted by forskolin was worked out, which was made the cAMP production inhibition rate.
For the molecule “WYKPAAGSHHYSVGRAAGLLSSFHRFPST [Trp1-rat GPR7L(29)]”, the half-maximal inhibitory concentration (IC50) came to 1.2 nM.

The next assay has as its target T2, GPR7 (Homo sapiens, UniProt P48145).
T2 sequence (P48145 1-328): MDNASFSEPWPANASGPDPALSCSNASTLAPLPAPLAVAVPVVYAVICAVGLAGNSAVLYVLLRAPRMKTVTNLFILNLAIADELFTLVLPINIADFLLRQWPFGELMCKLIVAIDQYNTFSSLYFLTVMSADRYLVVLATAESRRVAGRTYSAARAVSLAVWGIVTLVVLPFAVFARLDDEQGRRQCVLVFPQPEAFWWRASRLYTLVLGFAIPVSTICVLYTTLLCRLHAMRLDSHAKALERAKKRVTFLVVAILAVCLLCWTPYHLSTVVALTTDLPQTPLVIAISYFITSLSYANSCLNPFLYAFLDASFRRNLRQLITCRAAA
Assay: not given
Conditions: reported by O'Dowd, B. F. et al.; cited from earlier work.
In the case of β-endorphin, the “inhibition of [3H] bremazocine binding to the membrane fraction of GPR7” value is given as “inhibited”.

The target in another assay is T3, human GPR7 (human).
T3 chain: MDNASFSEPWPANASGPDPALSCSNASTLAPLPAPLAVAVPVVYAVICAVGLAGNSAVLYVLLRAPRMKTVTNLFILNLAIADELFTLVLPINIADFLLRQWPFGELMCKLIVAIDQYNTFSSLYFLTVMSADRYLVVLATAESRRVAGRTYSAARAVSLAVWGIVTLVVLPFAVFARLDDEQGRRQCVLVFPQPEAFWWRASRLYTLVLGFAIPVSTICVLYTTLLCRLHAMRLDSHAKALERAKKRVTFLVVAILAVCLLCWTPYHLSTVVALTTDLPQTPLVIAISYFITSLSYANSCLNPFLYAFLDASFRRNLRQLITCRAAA
Nature of the assay: competition, radioligand.
Conditions: not given
Take [Trp(6-Br)]YKPAAGHSSYSVGRAAGLLSGLRRSPYA [LTrp(6Br)1-human GPR7L(29)]: the half-maximal inhibitory concentration (IC50) was 0.32 nM.

With WYKPAAGHSSYSVGRAAGLLSGLRRSPYA [Trp1-human GPR7L(29)], the IC50 came to 0.33 nM.

In turn, WYKPAAGSHHYSVGRAAGLLSSFH [Trp1-rat GPR7L(24)] returned a concentration for half-maximal inhibition (IC50) of 0.3 nM.

WYKPAAGSHHYSVGRAAGLLSSFHRFPST [Trp1-rat GPR7L(29)] gave an IC50 of 0.34 nM.

As for [dTrp(6-Br)]YKPTAGQGYYSVGRAAGLLSGFHRSPYA [DTrp(6Br)1-bovine GPR7L(29)], the IC50 worked out at 6.1 nM.

For the molecule B1, the IC50 came to 13 nM.

In the case of [Trp(6-Br)]YKPTAGQGYYSVGRAAGLLSGFHRSPYA [LTrp(6Br)1-bovine GPR7L(29)], the half-inhibitory concentration (IC50) is 0.34 nM.

WYKPAAGHSSYSVGRAAGLLSGL [Trp1-human GPR7L(23)] came in with a concentration for half-maximal inhibition (IC50) of 1.6 nM.

With WYKHVASPRYHTVGRAAGLLMGL [Trp1-human GPR8L(23)], the IC50 was determined as 0.4 nM.

WYKPTAGQGYYSVGRAAGLLSGFHRSPYA [Trp1-bovine GPR7L(29)] had an IC50 of 0.31 nM.

Another assay concerns the target T2, GPR7. Put plainly: Test on binding inhibition of various peptides against human GPR7-expressed CHO cell membrane fraction. The arrangement: The synthetic primers were constructed so as to amplify the gene in the region to be translated to its receptor protein; expressed in transfected cells; host or cells: CHO cells, membrane fraction. Particulars: iodine-labeled hGPR7L-23; human GPR7-expressed CHO cell membrane fraction 1 μg/well; room temperature 1.5 hour. The protocol:
A mixture of 20 μl of hGPR7L-23 (SEQ ID NO:1) (0.1 mM or 1 mM), 20 μl of lactoperoxidase (Sigma; prepared using 10 μg/ml and 0.1M HEPES-NaOH pH7.0), 20 μl of Idoine-125 (manufactured by Amersham, MS-30, 74 MBq), 20 μl of 0.005% hydrogen peroxide (manufactured by Wako Pure Chemical Industries, Ltd.) was allowed to stand at room temperature for 20 to 30 minutes. Then, 600 μl of 0.1% TFA was added to the mixture. The mixture was applied to reverse phase HPLC for separation and the peaks of the two'labeled products were fractionated in a tube charged with 1 mL of DMSO. Immediately, the fraction was stored on ice and an aliquot was provided for measurement of the radioactivity with a γ-counter. The remaining preparation was dispensed and stored at −30° C.
Human GPR7-expressed CHO cells were cultured in a flask. The flask was washed with 5 mM EDTA/PBS to strip the cells off. The cells were stripped off with 5 mM EDTA/PBS and centrifuged for recovery. The recovered cells were suspended in 25 mL of a buffer for preparing membrane fraction (50 mM Tris-HCl, pH7.5, 5 mM EDTA, 0.1% bovine serum albumin (manufactured by Sigma), 0.5 mM PMSF (manufactured by Wako Pure Chemical Industries, Ltd.), 20 μg/mL leupeptin (manufactured by Peptide Research Institute), 0.1 μg/mL pepstatin A (manufactured by Peptide Research Institute) and 4 μg/mL E-64 (manufactured by Peptide Research Institute)), followed by homogenization on ice using a polytron (12,000 rpm, 15 seconds×3 times). The homogenate was centrifuged at 4° C. under 1,000 g for 10 minutes with a high speed cooling centrifuge to recover the supernatant. […] The pellets were recovered and suspended in a small quantity of the buffer for preparing membrane fractions. […]
Using the assay buffer, the human GPR7-expressed CHO cell membrane fraction was diluted in a final concentration of 1 μg/well and iodine-labeled hGPR7L-23 (SEQ ID NO:1) was diluted in a final concentration of […]. […] After 50 μl of a liquid scintillator was dispensed thereto, the radioactivity was counted on a Top Count (Packard) and the data was analyzed in triplet (FIG. 33). […]
The molecule `CC(C)C[C@H](NC(=O)CNC(=O)[C@H](C)NC(=O)[C@H](C)NC(=O)[C@H](CCCNC(=N)N)NC(=O)CNC(=O)[C@@H](NC(=O)[C@H](CO)NC(=O)[C@H](Cc1ccc(O)cc1)NC(=O)[C@H](Cc1ccc(O)cc1)NC(=O)CNC(=O)[C@H](CCC(N)=O)NC(=O)CNC(=O)[C@H](C)NC(=O)[C@@H](NC(=O)[C@@H]1CCCN1C(=O)[C@H](CCCCN)NC(=O)[C@H](Cc1ccc(O)cc1)NC(=O)[C@@H](N)Cc1c[nH]c2cc(Br)ccc12)[C@@H](C)O)C(C)C)C(=O)N[C@@H](CC(C)C)C(=O)N[C@@H](CO)C(=O)NCC(=O)N[C@@H](Cc1ccccc1)C(=O)N[C@@H](Cc1c[nH]cn1)C(=O)N[C@@H](CCCNC(=N)N)C(=O)N[C@@H](CO)C(=O)N1CCC[C@H]1C(=O)N[C@@H](Cc1ccc(O)cc1)C(=O)N[C@@H](C)C(=O)O` [LTrp(6Br)1-bovine GPR7L(29)] (H-[Trp(6-Br)]YKPTAGQGYYSVGRAAGLLSGFHRSPYA-OH; N-terminus and C-terminus assumed) yielded an IC50 of 0.34 nM.

“WYKPAAGSHHYSVGRAAGLLSSFHRFPST [Trp1-rat GPR7L(29)]” came in with a half-maximal inhibitory concentration (IC50) of 0.34 nM.

The next assay concerns the target T2, GPR7. Put plainly: Intracellular cAMP production suppression activity on human GPR7-expressed CHO cells. Type of assay: cell-based. The arrangement: The synthetic primers were constructed so as to amplify the gene in the region to be translated to its receptor protein; expressed in transfected cells; host or cells: CHO cells, membrane fraction. Particulars: forskolin-promoted cAMP production; receptor-expressed CHO cells; read-out: IC50 (nM) human GPR7, cAMP production inhibition. The protocol:
as §1
(In general: Changes in cAMP serve as a functional read-out for many G protein-coupled receptors.)
In the case of `CC(C)C[C@H](NC(=O)CNC(=O)[C@H](C)NC(=O)[C@H](C)NC(=O)[C@H](CCCNC(=N)N)NC(=O)CNC(=O)[C@@H](NC(=O)[C@H](CO)NC(=O)[C@H](Cc1ccc(O)cc1)NC(=O)[C@H](Cc1ccc(O)cc1)NC(=O)CNC(=O)[C@H](CCC(N)=O)NC(=O)CNC(=O)[C@H](C)NC(=O)[C@@H](NC(=O)[C@@H]1CCCN1C(=O)[C@H](CCCCN)NC(=O)[C@H](Cc1ccc(O)cc1)NC(=O)[C@@H](N)Cc1c[nH]c2cc(Br)ccc12)[C@@H](C)O)C(C)C)C(=O)N[C@@H](CC(C)C)C(=O)N[C@@H](CO)C(=O)NCC(=O)N[C@@H](Cc1ccccc1)C(=O)N[C@@H](Cc1c[nH]cn1)C(=O)N[C@@H](CCCNC(=N)N)C(=O)N[C@@H](CO)C(=O)N1CCC[C@H]1C(=O)N[C@@H](Cc1ccc(O)cc1)C(=O)N[C@@H](C)C(=O)O` [LTrp(6Br)1-bovine GPR7L(29)] (H-[Trp(6-Br)]YKPTAGQGYYSVGRAAGLLSGFHRSPYA-OH; N-terminus and C-terminus assumed), the IC50 worked out at 0.58 nM.

Turning to “WYKPAAGSHHYSVGRAAGLLSSFH [Trp1-rat GPR7L(24)]”, the half-maximal inhibitory concentration (IC50) amounted to 0.31 nM.
